Laboratory results from PMC10907589, “CD8^+ T cell priming that is required for curative intratumorally anchored anti-4-1BB immunotherapy is constrained by Tregs” (Nature Communications, 2024).

T1: murine 4-1BB (murine, UniProt P20334 24-256)
T1 chain: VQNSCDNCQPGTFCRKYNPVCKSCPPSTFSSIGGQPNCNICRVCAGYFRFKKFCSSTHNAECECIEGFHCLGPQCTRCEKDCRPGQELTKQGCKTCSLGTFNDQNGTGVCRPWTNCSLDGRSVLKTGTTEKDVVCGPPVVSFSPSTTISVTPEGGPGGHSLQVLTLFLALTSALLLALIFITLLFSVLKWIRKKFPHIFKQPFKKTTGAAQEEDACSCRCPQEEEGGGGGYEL


Columns and labels:
[1] = molecular target: rat collagen I (rat, UniProt P02454 152-1207; P02466 86-1125); assay: ELISA
[2] = molecular target: T1, murine 4-1BB; assay: FACS
[3] = molecular target: T2, murine 4-1BB (Mus musculus, UniProt P20334); assay: flow cytometry on cells; FreeStyle 293-F cells transiently transfected with murine 4-1BB, titrated with antibody for 3 h at 4 °C; detected with ɑmIgG1-APC; conditions: one partner purified
T2 construct: 4-1BB (CD137, TNFRSF9), murine; gene from OriGene cloned into pIRES2 (GFP downstream of an IRES site, not fused); also called CD137; TNFRSF9; source: FreeStyle 293-F, transiently transfected (pIRES2 vector), on cells

Chain of rat collagen I (P02454 152-1207, chain 1 of 2): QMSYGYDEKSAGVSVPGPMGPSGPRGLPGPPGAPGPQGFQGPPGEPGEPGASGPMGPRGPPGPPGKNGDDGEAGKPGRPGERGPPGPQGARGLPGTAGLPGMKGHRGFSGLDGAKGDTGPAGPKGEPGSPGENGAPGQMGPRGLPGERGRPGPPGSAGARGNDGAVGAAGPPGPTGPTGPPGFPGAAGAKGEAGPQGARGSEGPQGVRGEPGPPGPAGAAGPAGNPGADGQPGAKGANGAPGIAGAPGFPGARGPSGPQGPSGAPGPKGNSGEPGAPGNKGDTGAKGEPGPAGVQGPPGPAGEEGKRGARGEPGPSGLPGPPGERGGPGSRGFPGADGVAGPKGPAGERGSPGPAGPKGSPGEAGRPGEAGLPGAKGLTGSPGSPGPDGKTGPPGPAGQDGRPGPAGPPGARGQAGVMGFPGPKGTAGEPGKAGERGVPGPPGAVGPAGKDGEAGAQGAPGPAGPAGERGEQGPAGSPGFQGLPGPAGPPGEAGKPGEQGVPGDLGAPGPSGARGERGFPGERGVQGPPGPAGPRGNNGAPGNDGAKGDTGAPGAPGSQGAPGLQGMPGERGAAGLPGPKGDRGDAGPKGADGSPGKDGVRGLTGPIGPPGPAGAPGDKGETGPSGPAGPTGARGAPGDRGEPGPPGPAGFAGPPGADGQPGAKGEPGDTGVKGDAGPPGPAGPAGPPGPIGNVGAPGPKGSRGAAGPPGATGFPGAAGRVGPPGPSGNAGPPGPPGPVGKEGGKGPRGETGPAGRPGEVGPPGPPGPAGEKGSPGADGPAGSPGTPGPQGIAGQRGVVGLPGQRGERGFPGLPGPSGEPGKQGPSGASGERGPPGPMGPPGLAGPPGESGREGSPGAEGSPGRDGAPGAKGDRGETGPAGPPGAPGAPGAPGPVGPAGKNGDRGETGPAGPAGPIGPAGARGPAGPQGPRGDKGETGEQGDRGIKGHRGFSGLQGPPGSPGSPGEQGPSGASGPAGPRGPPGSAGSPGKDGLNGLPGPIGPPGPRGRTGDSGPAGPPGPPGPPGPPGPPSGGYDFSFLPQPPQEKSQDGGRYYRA
Chain of rat collagen I (P02466 86-1125, chain 2 of 2): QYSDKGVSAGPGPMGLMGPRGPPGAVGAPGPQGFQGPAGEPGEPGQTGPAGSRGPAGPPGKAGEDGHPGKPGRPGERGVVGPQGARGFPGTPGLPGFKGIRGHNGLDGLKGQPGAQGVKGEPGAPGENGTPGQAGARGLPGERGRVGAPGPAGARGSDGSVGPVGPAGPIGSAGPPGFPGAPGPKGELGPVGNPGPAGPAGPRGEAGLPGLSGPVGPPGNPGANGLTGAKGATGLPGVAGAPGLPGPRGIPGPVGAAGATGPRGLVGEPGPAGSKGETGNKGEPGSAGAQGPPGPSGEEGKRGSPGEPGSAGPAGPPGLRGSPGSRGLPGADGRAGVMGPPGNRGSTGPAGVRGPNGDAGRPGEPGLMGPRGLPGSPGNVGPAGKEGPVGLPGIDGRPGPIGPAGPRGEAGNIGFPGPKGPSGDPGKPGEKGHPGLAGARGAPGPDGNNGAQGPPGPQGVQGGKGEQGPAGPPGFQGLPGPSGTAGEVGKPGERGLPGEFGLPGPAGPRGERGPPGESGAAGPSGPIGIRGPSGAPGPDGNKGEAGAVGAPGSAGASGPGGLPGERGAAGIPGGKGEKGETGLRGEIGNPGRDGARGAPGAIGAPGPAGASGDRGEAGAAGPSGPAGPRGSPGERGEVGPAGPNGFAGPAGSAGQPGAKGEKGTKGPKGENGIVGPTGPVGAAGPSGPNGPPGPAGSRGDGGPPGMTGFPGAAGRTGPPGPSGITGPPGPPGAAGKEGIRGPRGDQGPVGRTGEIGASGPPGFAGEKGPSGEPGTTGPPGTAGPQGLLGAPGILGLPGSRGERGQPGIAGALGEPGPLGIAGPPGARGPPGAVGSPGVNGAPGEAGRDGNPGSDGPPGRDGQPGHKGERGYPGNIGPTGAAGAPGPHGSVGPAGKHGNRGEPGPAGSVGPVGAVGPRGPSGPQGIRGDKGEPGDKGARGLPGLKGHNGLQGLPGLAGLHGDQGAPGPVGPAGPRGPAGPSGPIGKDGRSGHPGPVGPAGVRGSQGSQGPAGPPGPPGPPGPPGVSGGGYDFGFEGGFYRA

Kd [1] [nM] | Kd [2] [nM] | binding result [3] | Binder
25 | 5.08 | binds | ɑ4-1BB-LAIR (ɑ4-1BB antibody clone LOB12.3 fused to the ectodomain of murine LAIR1) (antibody, V domains shown, heavy chain variable region of ɑ4-1BB clone LOB12.3; murine IgG1 heavy chain constant region; flexible (G4S)3 linker, written out from the printed formula; Leukocyte Associated Immunoglobulin Like Receptor 1 (LAIR1), murine, ectodomain; light chain variable region of ɑ4-1BB clone LOB12.3; murine kappa light chain constant region; Chimeric murine IgG1/kappa antibody; LAIR1 is fused to the …) VH: DVQLVESGGGLVQPGRSLKLSCAASGFIFSYFDMAWVRQAPTKGLEWVASISPDGSIPYYRDSVKGRFTVSRENAKSSLYLQMDSLRSEDTATYYCARRSYGGYSEIDYWGQGVMVTVSS VL: DIQMTQSPASLSASLEEIVTITCQASQDIGNWLAWYHQKPGKSPQLLIYGSTSLADGVPSRFSGSSSGSQYSLKISRLQVEDIGIYYCLQAYGAPWTFGGGTKLELK
– | 4.12 | binds | ɑ4-1BB antibody (clone LOB12.3), murine IgG1 chimera (antibody, V domains shown, heavy chain variable region of ɑ4-1BB clone LOB12.3, as in the heavy chain of m1; murine IgG1 heavy chain constant region; light chain variable region of ɑ4-1BB clone LOB12.3, as the light chain of m1; murine kappa light chain constant region; Chimeric murine IgG1/kappa antibody; light and heavy chain encoded in one cassette with a T2A peptide between them; also called α4-1BB; a4-1BB; source: …) VH: DVQLVESGGGLVQPGRSLKLSCAASGFIFSYFDMAWVRQAPTKGLEWVASISPDGSIPYYRDSVKGRFTVSRENAKSSLYLQMDSLRSEDTATYYCARRSYGGYSEIDYWGQGVMVTVSS VL: DIQMTQSPASLSASLEEIVTITCQASQDIGNWLAWYHQKPGKSPQLLIYGSTSLADGVPSRFSGSSSGSQYSLKISRLQVEDIGIYYCLQAYGAPWTFGGGTKLELK
